Assay results: the Human Domainome abundance scans (Beltran et al. 2025)
± gives the uncertainty stated by the source.

Assay: abundance fitness (aPCA) (normalised: wild type 0, dead -1); higher = more abundant; growth selection in yeast, the domain comes from the species named
Details: Homo sapiens

| Substance | abundance fitness |
| --- | --- |
| Lipoamide acyltransferase component of branched-chain alpha-keto acid dehydrogenase complex, mitochondrial K211M, P11182 | -0.073 ± 0.051 |
| Lipoamide acyltransferase component of branched-chain alpha-keto acid dehydrogenase complex, mitochondrial A176I, P11182 | -0.115 ± 0.089 |
| Lipoamide acyltransferase component of branched-chain alpha-keto acid dehydrogenase complex, mitochondrial G198F, P11182 | -0.771 ± 0.25 |
| Lipoamide acyltransferase component of branched-chain alpha-keto acid dehydrogenase complex, mitochondrial K202A, P11182 | 0.039 ± 0.042 |
| Lipoamide acyltransferase component of branched-chain alpha-keto acid dehydrogenase complex, mitochondrial R199C, P11182 | -0.054 ± 0.065 |
| Lipoamide acyltransferase component of branched-chain alpha-keto acid dehydrogenase complex, mitochondrial G193K, P11182 | -0.732 ± 0.057 |
| Lipoamide acyltransferase component of branched-chain alpha-keto acid dehydrogenase complex, mitochondrial I205C, P11182 | -0.16 ± 0.052 |
| Lipoamide acyltransferase component of branched-chain alpha-keto acid dehydrogenase complex, mitochondrial A173L, P11182 | -0.411 ± 0.058 |
| Lipoamide acyltransferase component of branched-chain alpha-keto acid dehydrogenase complex, mitochondrial V191Y, P11182 | -0.772 ± 0.067 |
| Lipoamide acyltransferase component of branched-chain alpha-keto acid dehydrogenase complex, mitochondrial N185K, P11182 | 0.016 ± 0.1 |
| Lipoamide acyltransferase component of branched-chain alpha-keto acid dehydrogenase complex, mitochondrial G198K, P11182 | -0.406 ± 0.18 |
| Lipoamide acyltransferase component of branched-chain alpha-keto acid dehydrogenase complex, mitochondrial N207V, P11182 | -0.11 ± 0.042 |
| Lipoamide acyltransferase component of branched-chain alpha-keto acid dehydrogenase complex, mitochondrial L188R, P11182 | -0.647 ± 0.04 |
| Lipoamide acyltransferase component of branched-chain alpha-keto acid dehydrogenase complex, mitochondrial L172K, P11182 | -0.004 ± 0.048 |
| Lipoamide acyltransferase component of branched-chain alpha-keto acid dehydrogenase complex, mitochondrial D197W, P11182 | -0.387 ± 0.064 |
| Lipoamide acyltransferase component of branched-chain alpha-keto acid dehydrogenase complex, mitochondrial I186S, P11182 | -0.594 ± 0.064 |
| Lipoamide acyltransferase component of branched-chain alpha-keto acid dehydrogenase complex, mitochondrial E190D, P11182 | 0.039 ± 0.064 |
| Lipoamide acyltransferase component of branched-chain alpha-keto acid dehydrogenase complex, mitochondrial E210T, P11182 | -0.041 ± 0.056 |
| Lipoamide acyltransferase component of branched-chain alpha-keto acid dehydrogenase complex, mitochondrial L209V, P11182 | 0.006 ± 0.039 |
| Lipoamide acyltransferase component of branched-chain alpha-keto acid dehydrogenase complex, mitochondrial K196Q, P11182 | -0.077 ± 0.047 |
| Lipoamide acyltransferase component of branched-chain alpha-keto acid dehydrogenase complex, mitochondrial I200C, P11182 | -0.589 ± 0.062 |
| Lipoamide acyltransferase component of branched-chain alpha-keto acid dehydrogenase complex, mitochondrial A176D, P11182 | -0.047 ± 0.043 |
| Lipoamide acyltransferase component of branched-chain alpha-keto acid dehydrogenase complex, mitochondrial K196I, P11182 | -0.185 ± 0.068 |
| Lipoamide acyltransferase component of branched-chain alpha-keto acid dehydrogenase complex, mitochondrial R199L, P11182 | -0.173 ± 0.04 |
| Lipoamide acyltransferase component of branched-chain alpha-keto acid dehydrogenase complex, mitochondrial V192N, P11182 | -0.073 ± 0.062 |

| Substance | abundance fitness |
| --- | --- |
| Lipoamide acyltransferase component of branched-chain alpha-keto acid dehydrogenase complex, mitochondrial G214Q, P11182 | 0.133 ± 0.074 |
| Lipoamide acyltransferase component of branched-chain alpha-keto acid dehydrogenase complex, mitochondrial T171A, P11182 | -0.215 ± 0.055 |
| Lipoamide acyltransferase component of branched-chain alpha-keto acid dehydrogenase complex, mitochondrial K211R, P11182 | 0.043 ± 0.037 |
| Lipoamide acyltransferase component of branched-chain alpha-keto acid dehydrogenase complex, mitochondrial T174M, P11182 | -0.643 ± 0.084 |
| Lipoamide acyltransferase component of branched-chain alpha-keto acid dehydrogenase complex, mitochondrial L188A, P11182 | -0.494 ± 0.057 |
| Lipoamide acyltransferase component of branched-chain alpha-keto acid dehydrogenase complex, mitochondrial G193A, P11182 | -0.199 ± 0.039 |
| Nanos homolog 2 V89S, P60321 | 0.094 ± 0.066 |
| Lipoamide acyltransferase component of branched-chain alpha-keto acid dehydrogenase complex, mitochondrial E203T, P11182 | -0.109 ± 0.087 |
| Lipoamide acyltransferase component of branched-chain alpha-keto acid dehydrogenase complex, mitochondrial Y208F, P11182 | -0.061 ± 0.084 |
| Lipoamide acyltransferase component of branched-chain alpha-keto acid dehydrogenase complex, mitochondrial V177R, P11182 | -0.802 ± 0.043 |
| Lipoamide acyltransferase component of branched-chain alpha-keto acid dehydrogenase complex, mitochondrial L172G, P11182 | -0.681 ± 0.051 |
| Lipoamide acyltransferase component of branched-chain alpha-keto acid dehydrogenase complex, mitochondrial G193P, P11182 | -0.08 ± 0.051 |
| Lipoamide acyltransferase component of branched-chain alpha-keto acid dehydrogenase complex, mitochondrial T174K, P11182 | -0.379 ± 0.063 |
| Lipoamide acyltransferase component of branched-chain alpha-keto acid dehydrogenase complex, mitochondrial K211D, P11182 | -0.076 ± 0.053 |
| Lipoamide acyltransferase component of branched-chain alpha-keto acid dehydrogenase complex, mitochondrial I186N, P11182 | -0.735 ± 0.097 |
| Lipoamide acyltransferase component of branched-chain alpha-keto acid dehydrogenase complex, mitochondrial R178W, P11182 | -0.27 ± 0.053 |
| Lipoamide acyltransferase component of branched-chain alpha-keto acid dehydrogenase complex, mitochondrial Y208V, P11182 | -0.02 ± 0.039 |
| Lipoamide acyltransferase component of branched-chain alpha-keto acid dehydrogenase complex, mitochondrial K211V, P11182 | -0.049 ± 0.045 |
| Lipoamide acyltransferase component of branched-chain alpha-keto acid dehydrogenase complex, mitochondrial G214T, P11182 | -0.034 ± 0.13 |
| Lipoamide acyltransferase component of branched-chain alpha-keto acid dehydrogenase complex, mitochondrial E210D, P11182 | -0.006 ± 0.058 |
| Lipoamide acyltransferase component of branched-chain alpha-keto acid dehydrogenase complex, mitochondrial A173W, P11182 | -0.279 ± 0.071 |
| Lipoamide acyltransferase component of branched-chain alpha-keto acid dehydrogenase complex, mitochondrial L201Q, P11182 | -0.11 ± 0.049 |
| Lipoamide acyltransferase component of branched-chain alpha-keto acid dehydrogenase complex, mitochondrial E203S, P11182 | -0.007 ± 0.067 |
| Lipoamide acyltransferase component of branched-chain alpha-keto acid dehydrogenase complex, mitochondrial L180P, P11182 | -0.557 ± 0.13 |
